Source: patent publication US20230000950A1, “COMPOSITION COMPRISING GLUCAGON AND GLP-1 AND GIP RECEPTOR DUAL AGONIST AND THERAPEUTIC USE OF SAME” (HANMI PHARM. CO., LTD., priority 2019, published 2023)
Positions of bridges follow the written chain, without caps; N, C: chain ends. Non-standard residues stand in square brackets, D forms with d. No end group written: not given here. Aib = CC(C)(N)C(=O)O

biological target: human glucagon receptor (human, UniProt P47871 26-477); assay: cell-based or functional assay; details: not given
Sequence (P47871 26-477): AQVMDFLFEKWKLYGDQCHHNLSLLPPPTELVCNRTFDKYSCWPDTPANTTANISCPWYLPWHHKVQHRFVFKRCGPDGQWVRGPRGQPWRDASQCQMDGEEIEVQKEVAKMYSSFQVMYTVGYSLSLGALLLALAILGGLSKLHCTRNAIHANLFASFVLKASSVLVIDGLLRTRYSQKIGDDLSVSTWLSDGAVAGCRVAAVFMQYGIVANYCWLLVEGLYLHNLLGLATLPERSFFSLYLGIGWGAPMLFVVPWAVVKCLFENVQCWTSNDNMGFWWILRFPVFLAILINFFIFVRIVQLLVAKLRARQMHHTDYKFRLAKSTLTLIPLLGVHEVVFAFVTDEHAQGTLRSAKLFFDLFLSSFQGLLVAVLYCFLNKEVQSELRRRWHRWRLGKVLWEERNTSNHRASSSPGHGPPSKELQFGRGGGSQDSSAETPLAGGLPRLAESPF

Molecule | In vitro activity (relative activity to SEQ ID NO: 1, %), cAMP assay, from EC50 [%]
Y[Aib]QGTFTSDYSKYLDERRAKEFVQWLMNTC (lactam 16-20) [glucagon derivative of SEQ ID NO: 37] | 226
Y[Aib]QGTFTSDYSKCLDEKRAKEFVQWLMNT (lactam 16-20) [glucagon derivative of SEQ ID NO: 24] | 58
Y[Aib]QGTFCSDYSKYLDERRAKEFVQWLMNT (lactam 16-20) [glucagon derivative of SEQ ID NO: 38] | 167
Y[Aib]QGTFTSDYSKYLDECRAKEFVQWLMNT (lactam 16-20) [glucagon derivative of SEQ ID NO: 20] | 300
Y[Aib]QGTFVSDCSKYLDERRAKDFVQWLMNT (lactam 16-20) [glucagon derivative of SEQ ID NO: 39] | 3.7
Y[Aib]QGTFTSDYSKYLDCKRAKEFVQWLMNT [glucagon derivative of SEQ ID NO: 14] | 18.1
Y[Aib]QGTFTSDYSKYLDSCDAQDFVQWLINT [glucagon derivative of SEQ ID NO: 8] | < 0.1
Y[Aib]QGTFTSDCSKYLDERRAKEFVQWLMNT (lactam 16-20) [glucagon derivative of SEQ ID NO: 36] | 9.9
Y[Aib]QGTFTSDYSKYLDEKCAKEFVQWLMNT (lactam 16-20) [glucagon derivative of SEQ ID NO: 21] | 57.8
Y[Aib]QGTFTSDYSKCLDERRAKDFVQWLMNT (lactam 16-20) [glucagon derivative of SEQ ID NO: 29] | 61.3
W[Aib]QGTFTSDYSKCLDERRAKDFVQWLMNT (lactam 16-20) [glucagon derivative of SEQ ID NO: 30] | 0.3
Y[Aib]QGTFTSDYSKYLDSCDADDFVVWLINT [glucagon derivative of SEQ ID NO: 10] | < 0.1
W[Aib]QGTFVSDYSKYLDECRAKDFVQWLMNT (lactam 16-20) [glucagon derivative of SEQ ID NO: 28] | < 0.1
YSQGTFTSDYSKYLDSCEADDFVQWLMNT [glucagon derivative of SEQ ID NO: 7] | < 0.1
Y[Aib]QGTFVSDYSKYLDERRAKDFVQWLMNTC (lactam 16-20) [glucagon derivative of SEQ ID NO: 40] | 40.8
Y[Aib]QGTFTSDYSKYLCEKRAKEFVQWLMNT (lactam 16-20) [glucagon derivative of SEQ ID NO: 19] | 12.1
HSQGTFTSDYSKYLDCDRAQDFVQWLMNT [glucagon derivative of SEQ ID NO: 2] | 0.6
Y[Aib]QGTFTSDYSKYLDCVRAQDFVQWLMRT [glucagon derivative of SEQ ID NO: 17] | 23.2
YXQGTFTSDYSKYLDSRRAQDFVQWLMNTC (X at position 2 = aminoisobutyric acid (Aib)) [glucagon derivative of SEQ ID NO: 44] | 75.4
Y[Aib]QGTFCSDYSKYLDSRRAQDFVQWLMNT [glucagon derivative of SEQ ID NO: 42] | 37.9
HSQGTFTSDYSKYLDSCDAQDFVQWLMNT [glucagon derivative of SEQ ID NO: 4] | < 0.1
Y[Aib]QGTFTSDYSKYLDSRRACDFRLWLMNT [glucagon derivative of SEQ ID NO: 18] | < 0.1

Molecule | In vitro activity (relative activity to SEQ ID NO: 1, %), cAMP assay, from EC50 [%]
Y[Aib]QGTFTSDYSCYLDSRRAQDFVQWLMNT [glucagon derivative of SEQ ID NO: 13] | 5.2
W[Aib]QGTFTSDYSKYCDERRAKEFVQWLMNT (lactam 16-20) [glucagon derivative of SEQ ID NO: 34] | 0.2
W[Aib]QGTFTSDYSKYLDECRAKDFVQWLMNT (lactam 16-20) [glucagon derivative of SEQ ID NO: 26] | 1
Y[Aib]QGTFTSDYSKYCDERRAKEFVQWLMNT (lactam 16-20) [glucagon derivative of SEQ ID NO: 35] | 17.7
Y[Aib]QGTFTSDYSKYLDEKRAKCFVQWLMNT (lactam 16-20) [glucagon derivative of SEQ ID NO: 25] | 46.9
Y[Aib]QGTFTSDYSKYLDEKCAKEFVQWLMNT [glucagon derivative of SEQ ID NO: 11] | 4.6
Y[Aib]QGTFVSDYSKYLDECRAKDFVQWLMNT (lactam 16-20) [glucagon derivative of SEQ ID NO: 27] | 93.6
Y[Aib]QGTFTSDYSKYLDSCDAQDFVVWLINT [glucagon derivative of SEQ ID NO: 9] | < 0.1
Y[Aib]QGTFCSDYSKYLDERRAKDFVQWLMNT (lactam 16-20) [glucagon derivative of SEQ ID NO: 41] | 45.2
Y[Aib]QGTFTSDYSKYLDEKRCKEFVQWLMNT (lactam 16-20) [glucagon derivative of SEQ ID NO: 22] | 148
SQGTFTSDYSKYLDECRAKEFVQWLMNT (lactam 15-19) [glucagon derivative of SEQ ID NO: 32] | 0.7
HSQGTFTSDYSKYLDSCEADDFVQWLMNT [glucagon derivative of SEQ ID NO: 6] | < 0.1
Y[Aib]QGTFTSDCSKYLDSRRAQDFVQWLMNT [glucagon derivative of SEQ ID NO: 43] | 1.6
Y[Aib]QGTFTSDYSKYLDEKRAKEFVQWLMNTC (lactam 16-20) [glucagon derivative of SEQ ID NO: 12] | 56.3
Y[Aib]QGTFTSDYSKYLDCRRAQVFVQWLMRT [glucagon derivative of SEQ ID NO: 16] | 4.2
Y[Aib]QGTFTSDYSCYLDEKRAKEFVQWLMNT [glucagon derivative of SEQ ID NO: 45] | 5.2
Y[Aib]QGTFTSDYSKYLDCKRAKEFVQWLMNT (lactam 17-21) [glucagon derivative of SEQ ID NO: 31] | 6.3
HSQGTFTSDYSKYLDCERAQDFVQWLMNT [glucagon derivative of SEQ ID NO: 3] | 6.1
HSQGTFTSDYSKYLDSCEAQDFVQWLMNT [glucagon derivative of SEQ ID NO: 5] | 0.3
YXQGTFTSDYSKYLDSRRAQDFVQWLMNT (X at position 2 = aminoisobutyric acid (Aib)) [glucagon derivative of SEQ ID NO: 33] | 108
Y[Aib]QGTFTSDYSKYCDEKRAKEFVQWLMNT (lactam 16-20) [glucagon derivative of SEQ ID NO: 23] | 76.8

tested on: not given; assay: not given; details: in vivo; cited from earlier work

Molecule | side effects
contrave | cardiovascular side effects

same assay, conditions: reported; cited from earlier work

Molecule | side effects
Cc1c(C(=O)NN2CCCCC2)nn(-c2ccc(Cl)cc2Cl)c1-c1ccc(Cl)cc1 [rimonabant] | central nervous system side effects
CC(C)CC(N(C)C)C1(c2ccc(Cl)cc2)CCC1 (centres unmarked) [sibutramine] | cardiovascular side effects

same assay, conditions: taken for one year; cited from earlier work

Molecule | body weight loss effect
CCCCCCCCCCC[C@@H](C[C@@H]1OC(=O)[C@H]1CCCCCC)OC(=O)[C@H](CC(C)C)NC=O [orlistat] | about 4 kg
